Conditions in all cases: remark: other sources report otherwise
Assay [1] addresses recombinant soluble homotrimeric HA of A/California/4/09 (H1N1) (Influenza A virus A/California/04/2009 (H1N1)). As to the kind of experiment: HA microarray, BCC supernatant.
Assay [2] deals with recombinant soluble homotrimeric HA of A/Japan/305/57 (H2N2) (Influenza A virus A/Japan/305/1957 (H2N2)). As to the kind of experiment: HA microarray, BCC supernatant.
Assay [3] deals with recombinant soluble homotrimeric HA of A/Solomon Islands/3/06 (H1N1) (Influenza A virus A/Solomon Islands/3/2006 (H1N1)). Briefly: HA microarray, BCC supernatant.
The target in assay [4] is recombinant soluble homotrimeric HA of A/chicken/Vietnam/NCVD-016/08 (H5N1) (Influenza A virus A/chicken/Vietnam/NCVD-016/2008 (H5N1)). As to the kind of experiment: HA microarray, BCC supernatant.
Assay [5] deals with recombinant soluble homotrimeric HA of A/duck/Yangzhou/02/2005 (H8N4) (Influenza A virus A/duck/Yangzhou/02/2005 (H8N4)). As to the kind of experiment: HA microarray, BCC supernatant.
Assay [6] addresses recombinant soluble homotrimeric HA of A/northern shoveler/California/HKWF115/2007 (H6N1) (Influenza A virus A/northern shoveler/California/HKWF115/2007 (H6N1)). Briefly: HA microarray, BCC supernatant.
The target in assay [7] is recombinant soluble homotrimeric HA, A/chicken/Vietnam/NCVD-016/08 (H5N1) (influenza A virus A/chicken/Vietnam/NCVD-016/2008 (H5N1)). Briefly: microarray, trimeric HA, transfection supernatant.
Assay [8] has as its target recombinant soluble homotrimeric HA, A/duck/Yangzhou/02/2005 (H8N4) (influenza A virus A/duck/Yangzhou/02/2005 (H8N4)). Briefly: microarray, trimeric HA, transfection supernatant.
Assay [9] deals with recombinant soluble homotrimeric HA, A/northern shoveler/California/HKWF115/2007 (H6N1) (influenza A virus A/northern shoveler/California/HKWF115/2007 (H6N1)). As to the kind of experiment: microarray, trimeric HA, transfection supernatant.
The target of assay [10] is recombinant soluble homotrimeric HA of A/Anhui/1/05 (H5N1) (Influenza A virus A/Anhui/1/2005 (H5N1)). Briefly: HA microarray, BCC supernatant.
For assay [11], the target named is recombinant soluble homotrimeric HA of A/Egypt/3300-NAMRU3/08 (H5N1) (Influenza A virus A/Egypt/3300-NAMRU3/2008 (H5N1)). As to the kind of experiment: HA microarray, BCC supernatant.
Assay [12] has as its target recombinant soluble homotrimeric HA of A/Indonesia/5/05 (H5N1) (Influenza A virus A/Indonesia/5/2005 (H5N1)). Briefly: HA microarray, BCC supernatant.
Assay [13] concerns the target recombinant soluble homotrimeric HA of A/Vietnam/1203/04 (H5N1) (Influenza A virus A/Vietnam/1203/2004 (H5N1)). Briefly: HA microarray, BCC supernatant.
Assay [14] concerns the target recombinant soluble homotrimeric HA of A/Wisconsin/67/05 (H3N2) (Influenza A virus A/Wisconsin/67/2005 (H3N2)). Briefly: HA microarray, BCC supernatant.
The target of assay [15] is recombinant soluble homotrimeric HA of A/Netherlands/219/03 (H7N7) (Influenza A virus A/Netherlands/219/03 (H7N7)). As to the kind of experiment: HA microarray, BCC supernatant.
In assay [16] the target is recombinant soluble homotrimeric HA of A/swine/Ontario/01911-2/99 (H4N6) (Influenza A virus A/Swine/Ontario/01911-2/99 (H4N6)). Briefly: HA microarray, BCC supernatant.
In assay [17] the target is recombinant soluble homotrimeric HA, A/Hong Kong/156/97 (H5N1) (influenza A virus A/Hong Kong/156/97 (H5N1)). Briefly: microarray, trimeric HA, transfection supernatant.

B1: TCN-548 (5092_P01) (antibody, V domains shown)
VH: QVQLQESGPGLVKPSETLSLTCTVSSGPMSDYYWSWIRQPPGKGLEWIGHVSVSHGGRTKSNPSVMSRVTISVETSKNQFSLKLTSVTAADTAVYYCARLNYYDRSGYHSPDGPSNNWFDPWGQGTLVTVSS
VL: not shown
In the case of B1, the Trimeric HA Binding RLU in assay [1] came to 234 RLU; in assay [2], 416 RLU; in assay [3], 283 RLU; in [4] it was 254 RLU; in assay [5], 184 RLU; in assay [6] it was 314 RLU. Moreover, the Trimeric HA Binding RLU in [7] turned out to be 1060 RLU; in [8], 5740 RLU; in assay [9], 2100 RLU.

B2: TCN-530 (5248_H10a) (antibody, V domains shown)
VH: QVQLVQSGAEVRKPGSSVKVSCKASGGPFMSYAIGWVRQAPGQGLEWMGGINPVFGRPHYAQKFQGRVTIATDDSTKTSYMELSSLTSEDTGMYYCASRYSRSSPGTFESWGQGTLVTVSS
VL: EIVMTQFPATLSVSPGERVTLSCRASQSVSNNLAWYQQKPGQPPRLLIYDASTRATGVPAKFSGTGSGTEFTLSISSLQSEDFAVYYCQQYHNWPPSYSFGLGTKLEIK
For B2, the Trimeric HA Binding RLU in [10] is 11900 RLU; in assay [1], 46600 RLU; in assay [11], 30400 RLU; in assay [12], 39800 RLU; in assay [2] it was 47000 RLU; in assay [3], 32800 RLU. Moreover, the Trimeric HA Binding RLU in assay [13] is 7150 RLU; in [14] it was 36800 RLU; in assay [4], 48300 RLU; in assay [6], 45300 RLU.

B3: TCN-563 (5237_B21) (antibody, V domains shown)
VH: QVQLAQSGAEVKRPGSSVKVSCTASGGIFRKNAISWVRQAPGQGLEWMGGIIAVFNTANYAQKFQGRVKITADESGNTAYMELSSLRSDDTAVYYCASHPKYFYGSGSYPDFWGQGTLVTVSS
VL: QSALTQPRSVSGSPGQSVTISCTGSSSDVGASNSVSWYQQHPGKAPKLVIYDVTERPSGVPHRFSGSKSGNTASLTVSGLQPEDEADYFCCAYGGKYLVVFGGGTKVTVL
On to B3, for which the Trimeric HA Binding RLU amounted to 9580 RLU in [10]; 45200 RLU in assay [1]; 27500 RLU in [11]; 39500 RLU in assay [12]; 6610 RLU in assay [2]; 7520 RLU in assay [15]. Besides, the Trimeric HA Binding RLU in [3] stood at 30000 RLU; in [13] it was 4840 RLU; in [14], 40800 RLU; in assay [4] it was 41000 RLU; in [5], 46700 RLU; in [6], 27300 RLU. Also, the Trimeric HA Binding RLU in [16] stood at 4500 RLU.

B4: TCN-552 (5249_I23) (antibody, V domains shown)
VH: QVQVVQSGAEVKKPGSSVRVSCQASGGTFMNYAIIWVRRAPGQGLEWMGGIIPVFPTPNYAQMFQGRVTISTDESRSTSFLELTNLRYEDTAVYYCARRIYHGGNSGFDFWGQGTLVTVSS
VL: EIVLTQSPATLSLSPGERATLSCRASQSVGNYLAWYQQKPGQAPRLLIYDSSNRAPGIPARFSGSGSGTDFTLTISSLAPEDFAVYYCQQRSKWPPMYSFGHGTKLEIK
For B4, the Trimeric HA Binding RLU in [10] worked out at 4160 RLU; in [1], 35300 RLU; in assay [11], 40000 RLU; in assay [12], 43600 RLU; in assay [2], 23800 RLU; in assay [3] it was 39300 RLU. Moreover, the Trimeric HA Binding RLU was 2730 RLU in assay [13]; 14800 RLU in assay [14]; 46200 RLU in assay [4]; 13100 RLU in assay [5]; 38400 RLU in assay [6]; 36300 RLU in [17]. Also, the Trimeric HA Binding RLU in assay [7] stood at 34500 RLU; in assay [8], 15900 RLU; in assay [9], 43900 RLU.

B5: TCN-532 (5262_H18) (antibody, V domains shown)
VH: QVQLQESGPGLVKPSETLSLTCTVSGGSVSSETYYWSWIRQPPGKGLEWIGYIYYIGNTDYRPSLKSRVTISLDTSKNQFSLKLSSVTAADTAVYYCARGAYYDSSGYPAFYIWGQGTMVTVSS
VL: QSVLTQPPSVSGAPGQRVTISCTGSSSNIGSDYDVHWYKQLPGTAPKLLIFGNSNRPSGVPDRFSGSKSGTSASLAITGLQAEDEADYYCQSYDSSLSGFHVFGSGTKVTVL
Consider B5, for which the Trimeric HA Binding RLU is 176 RLU in assay [2]; 327 RLU in [15]; 327 RLU in assay [3]; 18000 RLU in assay [14]; 46 RLU in [4]; 511 RLU in assay [6]. Further, in assay [16], the Trimeric HA Binding RLU came to 119 RLU.

B6: TCN-536 (5095_N01) (antibody, V domains shown)
VH: QVQLQQWGAGLLKPSETLSLTCAVYGGSFSVSGYYWSWIRQPPGRGLEWIGEISHGGSTNYNPSLKSRVTISVDTTKNQFSLRLSSVTAADTAVYYCARGTDPDTEVYCRVGNCAAFDYWGQGSLVTVSS
VL: EIILAQSPGTLSLSPGERATLSCRASQFVSTRSLAWYQQRPGQAPRLLIYGASSRATGIPDRFSGSGSGTDFTLTISRLEPEDFAVYYCQHYGYSPRYAFGQGSKVEIK
For B6, the Trimeric HA Binding RLU in assay [1] came out at 151 RLU; in assay [2] it was 121 RLU; in [14], 35000 RLU; in [4], 287 RLU; in [16] it was 79 RLU.

B7: TCN-537 (3194_D21) (antibody, V domains shown)
VH: QVQLQQWGSGLLKPSETLSLTCAVYGGSFRDDYWTWIRQPPGKGLEWIGEINHSGRTNYNPSLKSRVTISVDTSLKQFSLKVISVTAADTAVYYCARGTSHVSRYFDWLPPTNWFDPWGQGTQVTVSS
VL: DIVLTQSPGTLSLSPGERATLSCRASQSVSSSYLAWYQQKPGQAPRLVMYGAATRATGIPDRFSGSGSGPDFTLTISRLEPEDFAMYYCQQYGNSPITFGQGTRLEIK
For B7, the Trimeric HA Binding RLU in assay [1] came to 21900 RLU; in [11], 38200 RLU; in assay [12], 14900 RLU; in assay [2], 44700 RLU; in [14], 549 RLU; in assay [4], 8620 RLU. Further, the Trimeric HA Binding RLU amounted to 7830 RLU in assay [5]; 5210 RLU in [6]; 19 RLU in assay [16]; 10700 RLU in assay [17]; 4480 RLU in assay [7]; 25500 RLU in assay [8].

These data come from patent US20150104459A1.
